According to publication PMC8320243 (Circulation research, 2021):
Residue numbers refer to the chain shown, from its start. In names and notes the source's numbering stands.

B1: cMyc-tagged RyR2 N-terminus (NT, residues 1-906), wild type (domain or fragment, UniProt Q92736 1-906, looked up)
chain: MADGGEGEDEIQFLRTDDEVVLQCTATIHKEQQKLCLAAEGFGNRLCFLESTSNSKNVPPDLSICTFVLEQSLSVRALQEMLANTVEKSEGQVDVEKWKFMMKTAQGGGHRTLLYGHAILLRHSYSGMYLCCLSTSRSSTDKLAFDVGLQEDTTGEACWWTIHPASKQRSEGEKVRVGDDLILVSVSSERYLHLSYGNGSLHVDAAFQQTLWSVAPISSGSEAAQGYLIGGDVLRLLHGHMDECLTVPSGEHGEEQRRTVHYEGGAVSVHARSLWRLETLRVAWSGSHIRWGQPFRLRHVTTGKYLSLMEDKNLLLMDKEKADVKSTAFTFRSSKEKLDVGVRKEVDGMGTSEIKYGDSVCYIQHVDTGLWLTYQSVDVKSVRMGSIQRKAIMHHEGHMDDGISLSRSQHEESRTARVIRSTVFLFNRFIRGLDALSKKAKASTVDLPIESVSLSLQDLIGYFHPPDEHLEHEDKQNRLRALKNRQNLFQEEGMINLVLECIDRLHVYSSAAHFADVAGREAGESWKSILNSLYELLAALIRGNRKNCAQFSGSLDWLISRLERLEASSGILEVLHCVLVESPEALNIIKEGHIKSIISLLDKHGRNHKVLDVLCSLCVCHGVAVRSNQHLICDNLLPGRDLLLQTRLVNHVSSMRPNIFLGVSEGSAQYKKWYYELMVDHTEPFVTAEATHLRVGWASTEGYSPYPGGGEEWGGNGVGDDLFSYGFDGLHLWSGCIARTVSSPNQHLLRTDDVISCCLDLSAPSISFRINGQPVQGMFENFNIDGLFFPVVSFSAGIKVRFLLGGRHGEFKFLPPPGYAPCYEAVLPKEKLKVEHSREYKQERTYTRDLLGPTVSLTQAAFTPIPVDTSQIVLPPHLERIREKLAENIHELWVMNKIELGWQYGP
B2: cMyc-tagged RyR2 N-terminus (NT, residues 1-906) with R420Q (domain or fragment, UniProt Q92736 1-906, looked up)
chain: B1 chain with R420Q

Biological target: the molecule itself
Experiment: cross-linking

| Protein | stoichiometry N |
| --- | --- |
| B1 | 4 |
| B2 | 4 |
